US20240425848

Target: histone H3 trimethylated at lysine 9 (H3K9me3) in native chromatin of Caki-1 cells, P68431

B1: Tn5 (protein)
chain: MITSALHRAADWAKSVFSSAALGDPRRTARLVNVAAQLAKYSGKSITISSEGSKAMQEGAYRFIRNPNVSAEAIRKAGAMQTVKLAQEFPELLAIEDTTSLSYRHQVAEELGKLGSIQDKSRGWWVHSVLLLEATTFRTVGLLHQEWWMRPDDPADADEKESGKWLAAAATSRLRMGSMMSNVIAVCDREADIHAYLQDKLAHNERFVVRSKHPRKDVESGLYLYDHLKNQPELGGYQISIPQKGVVDKRGKRKNRPARKASLSLRSGRITLKQGNITLNAVLAEEINPPKGETPLKWLLLTSEPVESLAQALRVIDIYTHRWRIEEFHKAWKTGAGAERQRMEEPDNLERMVSILSFVAVRLLQLRESFTPPQALRAQGLLKEAEHVESQSAETVLTPDECQLLGYLDKGKRKRKEKAGSLQWAYMAIARLGGFMDSKRTGIASWGALWEGWEALQSKLDGFLAAKDLMAQGIKI
Ec: global enrichment of the ATAC-seq tagmentation signal over H3K9me3-marked regions, log2(ratio) over genomic Input, Caki-1; subscript printed as 0, first E line of the box: E0= -5.07 | Ec: global enrichment of the ATAC-seq tagmentation signal over H3K9me3-marked regions, log2(ratio) over genomic Input, Caki-1 [Continued) e]: Ec= -5.07 | Mc: modal enrichment of the ATAC-seq tagmentation signal over H3K9me3-marked regions, log2(ratio) over genomic Input, Caki-1; subscript printed as 0, first M line of the box, agrees with the mode of t: M0= -2.19 | Mc: modal enrichment of the ATAC-seq tagmentation signal over H3K9me3-marked regions, log2(ratio) over genomic Input, Caki-1 [Continued) e]: Mc= -2.19 | stated: no tagmentation signal over H3K9me3 ChIP-seq domains (ATAC-seq on permeabilized Caki-1 nuclei): Tn5 track (scale 0-140.7): near zero over the H3K9me3 domains at about 42.4-43.4 and 43.8-44.6 Mbp of Chr. 19; peaks only where the H3K4me3 track has peaks | stated: no tagmentation signal over H3K9me3 ChIP-seq domains (ATAC-seq, Caki-1): Tn5 track (scale 0-50): clusters of sharp peaks at the positions of the H3K4me3 peaks; near zero at about 59-62 Mbp of Chr.12, where the H3K9me3 and TnH tracks are raised | stated: no tagmentation signal over H3K9me3 ChIP-seq domains (bulk ATAC-seq with Tn5 alone and scGET-seq pseudo-bulk, Caki-1) [Continued) g]: tn5 and tn5 pseudobulk tracks (scale 0-50 each): flat near 0 at about 33.5-34.7 Mbp and near 0 inside the H3K9me3 domains at about 36.6-37.4 and 38.2-38.9 Mbp of chr1; sharp peaks at the positions of the H3K4me3 peaks
